In publication doi:10.1101/2024.06.16.598887 (bioRxiv, 2024):
Where two headings read alike, the source gives them in different places.

Columns and labels:
[1] = target: T1, pig (Sus scrofa) skeletal muscle alpha-actin (pig (Sus scrofa), UniProt P68137 1-377); assay: ITC
[2] = target: T1, pig (Sus scrofa) skeletal muscle …; assay: ITC; remark: listed apart in the source

B1: Anopheles gambiae actin depolymerizing factor (natural protein)
chain: MASGVTVSDVCKTTYEEIKKDKKHRYVIFYIRDEKQIDVEVIGDRNAEYDSFLEDIQKGGPGECRYGLFDFEYMHQCQGTSESSKKQKLFLMSWCPDTAKVKKKMLYSSSFDALKKSLVGVQKYIQATDLSEASREAVEEKLRATDRQ
Binder B1 has a Kd [1] of 1.6 nM, a dH [1] of -14.1 ± 0.1 kcal/mol and a Kd [2] of 0.8 nM. The dH [2] was -13.6 ± 0.1 kcal/mol and the “stoichiometry N” value [2] was about 1.
